The supplement of paper PMC9112550, “Optimization of the antimicrobial peptide Bac7 by deep mutational scanning” (BMC Biology, 2022)

Tested on: Escherichia coli TOP10
Assay: shrunken log2 fold change of peptide-encoding DNA abundance (4.5 h post-induction vs induction); higher = less antimicrobial activity (less host growth inhibition)
Conditions: time post-induction: 4.5 h; library: site-saturation at positions 5, 18, 19, 20
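Also: peptides expressed intracellularly from a pBAD plasmid library in pooled LB shake-flask culture, induced with 0.3% L-arabinose, DNA abundance read by NGS, three biological replicates, DESeq2 with apeglm shrinkage.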

Sequence	shrunken log2 fold change
RRIRWRPPRLPRPRPRPSVIPRP	-0.272
RRIRGRPPRLPRPRPRPWHMPRP	-0.345
RRIRKRPPRLPRPRPRPIRIPRP	-0.0265
RRIRWRPPRLPRPRPRPYDFPRP	-0.181
RRIRERPPRLPRPRPRPQVDPRP	-0.211
RRIRARPPRLPRPRPRPQYCPRP	-0.0903
RRIRKRPPRLPRPRPRPGEYPRP	0.156
RRIRPRPPRLPRPRPRPTMFPRP	-0.164
RRIRLRPPRLPRPRPRPEVVPRP	0.0493
RRIRHRPPRLPRPRPRPCSRPRP	-0.231
RRIRYRPPRLPRPRPRPYHKPRP	-0.249
RRIRQRPPRLPRPRPRPSGLPRP	-0.0802
RRIRKRPPRLPRPRPRPLQCPRP	0.101
RRIRPRPPRLPRPRPRPPGWPRP	0.484
RRIRTRPPRLPRPRPRPRHMPRP	-0.115
RRIRMRPPRLPRPRPRPYLAPRP	-0.0134
RRIRRRPPRLPRPRPRPETEPRP	0.783
RRIRWRPPRLPRPRPRPYRGPRP	-0.0785
RRIRARPPRLPRPRPRPHCKPRP	0.0852
RRIRVRPPRLPRPRPRPCFCPRP	-0.252
RRIRNRPPRLPRPRPRPNHVPRP	-0.117
RRIRCRPPRLPRPRPRPAVWPRP	0.617
RRIRRRPPRLPRPRPRPETNPRP	0.596
RRIRVRPPRLPRPRPRPIAAPRP	0.454
RRIRQRPPRLPRPRPRPLPQPRP	0.337

Sequence	shrunken log2 fold change
RRIRNRPPRLPRPRPRPWWSPRP	0.0428
RRIRLRPPRLPRPRPRPSEWPRP	-0.0637
RRIRSRPPRLPRPRPRPGQDPRP	-0.329
RRIRDRPPRLPRPRPRPKYIPRP	-0.516
RRIRKRPPRLPRPRPRPTRTPRP	0.951
RRIRRRPPRLPRPRPRPEAHPRP	0.171
RRIRDRPPRLPRPRPRPEKQPRP	0.0247
RRIRMRPPRLPRPRPRPCHVPRP	-0.0132
RRIRIRPPRLPRPRPRPFVTPRP	-0.938
RRIRHRPPRLPRPRPRPHNIPRP	-0.209
RRIRRRPPRLPRPRPRPHMYPRP	-0.272
RRIRERPPRLPRPRPRPHIPPRP	-0.682
RRIRSRPPRLPRPRPRPNVPPRP	-0.131
RRIRTRPPRLPRPRPRPMTAPRP	0.154
RRIRHRPPRLPRPRPRPAPRPRP	0.749
RRIRRRPPRLPRPRPRPYHFPRP	-0.116
RRIRMRPPRLPRPRPRPGSNPRP	0.211
RRIRVRPPRLPRPRPRPACGPRP	0.122
RRIRCRPPRLPRPRPRPNLWPRP	0.00489
RRIRARPPRLPRPRPRPWYIPRP	-0.257
RRIRVRPPRLPRPRPRPEMDPRP	0.111
RRIRMRPPRLPRPRPRPLPYPRP	0.0635
RRIRWRPPRLPRPRPRPWCCPRP	-0.065
RRIRHRPPRLPRPRPRPIQMPRP	-0.00723
RRIRWRPPRLPRPRPRPKVMPRP	-0.207

Sequence	shrunken log2 fold change
RRIRCRPPRLPRPRPRPVFGPRP	-0.0365
RRIRMRPPRLPRPRPRPYRKPRP	-0.432
RRIRNRPPRLPRPRPRPIWQPRP	0.0123
RRIRLRPPRLPRPRPRPMHGPRP	0.0554
RRIRPRPPRLPRPRPRPYEYPRP	-0.314
RRIRCRPPRLPRPRPRPVKLPRP	-0.176
RRIRFRPPRLPRPRPRPAVLPRP	0.107
RRIRSRPPRLPRPRPRPCHVPRP	-0.0349
RRIRTRPPRLPRPRPRPDQEPRP	0.105
RRIRARPPRLPRPRPRPEGFPRP	0.566
RRIRLRPPRLPRPRPRPVRKPRP	-0.0647
RRIRDRPPRLPRPRPRPEMKPRP	0.0494
RRIRVRPPRLPRPRPRPCNRPRP	-0.0287
RRIRARPPRLPRPRPRPHLCPRP	0.202
RRIRKRPPRLPRPRPRPEFTPRP	0.738
RRIRQRPPRLPRPRPRPTIIPRP	-0.244
RRIRVRPPRLPRPRPRPIEAPRP	-0.00729
RRIRNRPPRLPRPRPRPTCGPRP	0.073
RRIRGRPPRLPRPRPRPGTIPRP	0.00615
RRIRIRPPRLPRPRPRPFLHPRP	-0.787
RRIRQRPPRLPRPRPRPLMAPRP	-0.0462
RRIRYRPPRLPRPRPRPEPLPRP	0.0319
RRIRSRPPRLPRPRPRPFIGPRP	-1.15
RRIRCRPPRLPRPRPRPLVMPRP	-0.0664
RRIRNRPPRLPRPRPRPCCYPRP	-0.0141
